Source: publication doi:10.1101/2021.02.24.432666

Target: yeast TRiC subunit CCT5 (yeast) (UniProt P40413)
Assay: cryo-EM structure

## yeast TRiC subunit CCT5 (from UniProt P40413 1-562) (natural protein)
  stoichiometry N (subunits (single ring)): 8
